Results as given in the supplement of paper PMC7877785.
± gives the uncertainty stated by the source.

Test: self-splicing fitness, log relative to wild type (ln ratio); higher = more splicing; Tetrahymena group I intron in knt gene, E. coli kanamycin selection, DiMSum; sequences stand for … in CUCUCU…GGAGGGAAAAGUUAUCAGGCAUGCACCUGGUAGCUAGUCUUUAAACCAAUAGAUUGCAUCGGUUUAAAAGGCAAGACCGUCAAAUUGCGGGAAAGGGGUCAACAGCCGUUCAGUACCAAGUCUCAGGGGAAACUUUGAGAUGGCCUUGCAAAGGGUAUGGUAAUAAGCUGACGGACAUGGUCCUAACCACGCAGCCAAGUCCUAAGUCAACAGAUCUUCUGUUGAUAUGGAUGCAGUUCACAGACUAAAUGUCGGUCGGGGAAGAUGUAUUCUUCUCAUAAGAUAUAGUCGGACCUCUCCUUAAUGGGAGCUAGCGGAUGAAGUGAUGCAACACUGGAGCCGCUGGGAACUAAUUUGUAUGCGAAAGUAUAUUGAUUAGUUUUGGAGUACUCGUGGUCG
Summary of the method: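 Library with all eight P1ex-region intron nucleotides randomised, intron inside the knt kanamycin-resistance gene on pET-22b(+), in E. coli BL21(DE3). Cells grew overnight at 37°C or 30°C on LB agar with or without 25 μg/mL kanamycin (plus 100 μg/mL carbenicillin, 50 μM IPTG, 0.2% rhamnose), in six replicate transformations. Pooled colonies were amplicon-sequenced on Illumina HiSeq 2500. DiMSum fitness is the error-weighted combination of wild-type-normalised replicate fold changes, kanamycin versus none.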

Row | Sequence | self-splicing fitness (ln) (30 °C) | self-splicing fitness (ln) (37 °C)
1 | GAUGAGCAAUAUUACGGAGU | -3.16 ± 0.26 | -2.71 ± 0.38
2 | GAUGAGCAAUAUUACGGCCG | 0.414 ± 0.41 | 
3 | GAUGAGCAAUAUUACGGGGA |  | -2.04 ± 0.25
4 | GAUGAGCAAUAUUACGGGUA | -3.19 ± 0.27 | -1.02 ± 0.17
5 | GAUGAGCAAUAUUACGGUAU | -2.71 ± 0.18 | -1.28 ± 0.14
6 | GAUGAGCAAUAUUACGGUGA | -2.21 ± 0.28 | -1.76 ± 0.27
7 | GAUGAGCAAUAUUACGGUUA | -2.77 ± 0.28 | -2.47 ± 0.25
8 | GAUGAGCAAUAUUACGUAAU | -2.8 ± 0.23 | -1.55 ± 0.28
9 | GAUGAGCAAUAUUACGUAGC | -3.69 ± 0.34 | -1.74 ± 0.25
10 | GAUGAGCAAUAUUACGUAUC | -3.54 ± 0.37 | -2.64 ± 0.31
11 | GAUGAGCAAUAUUACGUAUG |  | -1.59 ± 0.14
12 | GAUGAGCAAUAUUACGUCCG | -3.75 ± 0.43 | -2.09 ± 0.32
13 | GAUGAGCAAUAUUACGUGUA | -2.77 ± 0.16 | -1.87 ± 0.16
14 | GAUGAGCAAUAUUACGUGUU | -3.72 ± 0.31 | -2.47 ± 0.27
15 | GAUGAGCAAUAUUACGUUAC | -2.14 ± 0.13 | -0.982 ± 0.23
16 | GAUGAGCAAUAUUACGUUCA | -1.15 ± 0.079 | -0.819 ± 0.094
17 | GAUGAGCAAUAUUACGUUCC | -3.45 ± 0.49 | -2.23 ± 0.42
18 | GAUGAGCAAUAUUACGUUGC | -4.01 ± 0.39 | -3 ± 0.35
19 | GAUUAGCAAUAUUACGAACG | -1.09 ± 0.12 | 0.232 ± 0.13
20 | GAUUAGCAAUAUUACGAAGC | -2.4 ± 0.21 | -2.28 ± 0.21
21 | GAUUAGCAAUAUUACGAAUG | -0.837 ± 0.14 | -0.649 ± 0.16
22 | GAUUAGCAAUAUUACGAAUU | -2.56 ± 0.3 | -2.95 ± 0.47
23 | GAUUAGCAAUAUUACGACCG | -1.44 ± 0.14 | 0.0909 ± 0.18
24 | GAUUAGCAAUAUUACGACUA | -0.765 ± 0.17 | 0.0117 ± 0.13
25 | GAUUAGCAAUAUUACGAUAU | -1.19 ± 0.11 | -0.869 ± 0.13
26 | GAUUAGCAAUAUUACGCCGU | -1.61 ± 0.15 | -0.986 ± 0.25

Row | Sequence | self-splicing fitness (ln) (30 °C) | self-splicing fitness (ln) (37 °C)
27 | GAUUAGCAAUAUUACGCCUG | -1.56 ± 0.2 | -0.102 ± 0.19
28 | GAUUAGCAAUAUUACGCGAG | -2.28 ± 0.17 | -0.865 ± 0.12
29 | GAUUAGCAAUAUUACGCGUC | -4.09 ± 0.47 | -2.01 ± 0.3
30 | GAUUAGCAAUAUUACGCUAC | -3.62 ± 0.42 | -1.48 ± 0.29
31 | GAUUAGCAAUAUUACGCUGU | -2.84 ± 0.28 | -1.74 ± 0.31
32 | GAUUAGCAAUAUUACGGAGC | -3.23 ± 0.17 | -1.23 ± 0.13
33 | GAUUAGCAAUAUUACGGGAG | -2.81 ± 0.24 | -2.8 ± 0.38
34 | GAUUAGCAAUAUUACGGUCA | -1.38 ± 0.15 | -1.2 ± 0.12
35 | GAUUAGCAAUAUUACGGUGU | -2.74 ± 0.09 | -0.798 ± 0.083
36 | GAUUAGCAAUAUUACGUACG | -1.1 ± 0.13 | 0.136 ± 0.15
37 | GAUUAGCAAUAUUACGUCCU | -1.08 ± 0.14 | -0.47 ± 0.18
38 | GAUUAGCAAUAUUACGUGUC | -2.86 ± 0.27 | -2.28 ± 0.26
39 | GAUUAGCAAUAUUACGUUAA | -1.94 ± 0.32 | -1.98 ± 0.3
40 | GAUUAGCAAUAUUACGUUCA | -0.941 ± 0.084 | -0.497 ± 0.088
41 | GAUUAGCAAUAUUACGUUCU | -2.91 ± 0.11 | -2.07 ± 0.1
42 | GAUUAGCAAUAUUACGUUGC |  | -1.94 ± 0.26
43 | GCAAAGCAAUAUUACGAAAA | -1.98 ± 0.2 | -1.84 ± 0.24
44 | GCAAAGCAAUAUUACGAACU | -0.569 ± 0.094 | -0.26 ± 0.13
45 | GCAAAGCAAUAUUACGAAUC | -1.68 ± 0.12 | -0.115 ± 0.13
46 | GCAAAGCAAUAUUACGAGGG | -3.02 ± 0.11 | -1.55 ± 0.1
47 | GCAAAGCAAUAUUACGAUAG | -2.23 ± 0.11 | -0.989 ± 0.12
48 | GCAAAGCAAUAUUACGAUGG | -1.02 ± 0.099 | -0.442 ± 0.13
49 | GCAAAGCAAUAUUACGCAUU | -2.78 ± 0.12 | -1.7 ± 0.14
50 | GCAAAGCAAUAUUACGCCAC | -3.15 ± 0.27 | -1.93 ± 0.19
51 | GCAAAGCAAUAUUACGCGAG | -2.18 ± 0.28 | -1.11 ± 0.18
52 | GCAAAGCAAUAUUACGCUCA | -0.972 ± 0.13 | -0.0384 ± 0.16

Row | Sequence | self-splicing fitness (ln) (30 °C) | self-splicing fitness (ln) (37 °C)
53 | GCAAAGCAAUAUUACGCUGC | -3.72 ± 0.42 | 
54 | GCAAAGCAAUAUUACGCUGU | -3.42 ± 0.26 | -2.84 ± 0.31
55 | GCAAAGCAAUAUUACGGAAG | -1.96 ± 0.14 | -0.343 ± 0.16
56 | GCAAAGCAAUAUUACGGACA | -0.517 ± 0.18 | -0.839 ± 0.14
57 | GCAAAGCAAUAUUACGGACC | -0.898 ± 0.092 | 0.746 ± 0.13
58 | GCAAAGCAAUAUUACGGACU | -0.621 ± 0.047 | 0.0957 ± 0.075
59 | GCAAAGCAAUAUUACGGAGG | -1.9 ± 0.1 | -1.62 ± 0.14
60 | GCAAAGCAAUAUUACGGAUG | -2.52 ± 0.12 | -1.74 ± 0.13
61 | GCAAAGCAAUAUUACGGCGC | -2.1 ± 0.19 | -0.824 ± 0.2
62 | GCAAAGCAAUAUUACGGCGU | -1.78 ± 0.1 | -0.692 ± 0.12
63 | GCAAAGCAAUAUUACGGUCG | -1.62 ± 0.089 | -0.369 ± 0.11
64 | GCAAAGCAAUAUUACGUCGC | -1.48 ± 0.16 | -2.45 ± 0.27
65 | GCACAGCAAUAUUACGAAGA | -1.41 ± 0.14 | -1.4 ± 0.18
66 | GCACAGCAAUAUUACGACCG | -1.14 ± 0.098 | 0.0916 ± 0.15
67 | GCACAGCAAUAUUACGCACA | -1.09 ± 0.092 | -0.164 ± 0.1
68 | GCACAGCAAUAUUACGCACU | -0.263 ± 0.06 | 0.324 ± 0.077
69 | GCACAGCAAUAUUACGCCAG | -1.99 ± 0.25 | -2.06 ± 0.26
70 | GCACAGCAAUAUUACGCCCC | -0.949 ± 0.12 | -0.0642 ± 0.15
71 | GCACAGCAAUAUUACGCGCG | -1.05 ± 0.066 | -0.445 ± 0.075
72 | GCACAGCAAUAUUACGCUCU | -0.938 ± 0.091 | -0.131 ± 0.1
73 | GCACAGCAAUAUUACGCUGA | -2.36 ± 0.13 | -0.362 ± 0.088
74 | GCACAGCAAUAUUACGGAAA | -2.39 ± 0.2 | 0.239 ± 0.16
75 | GCACAGCAAUAUUACGGACC | -1.43 ± 0.11 | 0.156 ± 0.14
76 | GCACAGCAAUAUUACGGCAG | -3.39 ± 0.2 | -1.4 ± 0.16
77 | GCACAGCAAUAUUACGGGCC |  | -1.7 ± 0.21
